Test results from the supplement of paper PMC10567573.

B1: CHCHD6 (parent)
chain: MYKLSSEQFHEAASKMESTIKPRR

Variants of: B1
Experiment: protein stability index of a GFP-peptide fusion (GPS, HEK-293T) (PSI 1-6); higher = more stable
Details: c terminus: a fixed tail appended
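Note: lentivirally expressed fusions sorted by FACS into six bins by GFP to DsRed ratio, PSI derived from sequencing read proportions per bin multiplied by bin number.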

Protein stability index: each site, then its substitutions
H10: Q 3.98, F 3.44, I 3.08, T 3.3, M 3.37, R 3.82, P 4.08, S 4.15, V 3.78, C 3.93, G 4.28, D 4.15, W 2.54, A 3.66, K 4, E 4.24, N 3.41, L 3.69, Y 3.52
F9: W 3.23, G 4.21, R 4.25, E 4.43, P 4.68, Q 4.12, Y 3.98, M 4.28, T 4.2, S 4.81, A 4.03, K 4.58, N 4.64, I 4.06, C 3.83, L 3.36, V 3.36, H 4.32, D 4.82
E11: M 3.28, Q 3.69, A 2.99, F 2.65, K 3.69, P 3.6, N 3.4, D 3.65, H 3.22, I 3.34, L 3.26, C 3.06, R 3.35, G 3.8
Y2: W 2.58, V 4.05
Q8: N 3.86, K 3.84, G 3.35, S 3.74, H 3.22, D 3.73, L 3.22, W 2.5, I 2.84, F 2.65, C 2.96, Y 2.94, M 3.39, V 3.49, A 4.25, R 3.86, T 4.16, E 3.75, P 4.39
S5: P 3.17, M 3.87, W 3.17, T 3.64, F 2.82, I 2.65, Q 3.78, L 3.02, Y 2.72, N 4.06, E 4.24, G 4.68, C 3.14, H 4.14, R 3.94, V 3.43, K 3.56, D 4.06, A 4.02
K3: H 3.98, W 2.94, R 3.6, N 3.68, P 4.17, C 3.63, Q 4.17, Y 3.08, G 4.46, S 2.47, D 3.84, F 2.55, A 4.56, I 2.59, V 2.7, E 3.66, L 2.66, T 3.73, M 3.7
E7: M 2.97, T 3.2, G 4.39, C 3.29, A 3.6, Y 2.82, N 3.58, L 3.71, R 2.96, F 3.1, Q 3.58, D 3.7, V 3.44, H 3.44, I 3.1, K 3.71, W 2.56, S 3.79, P 3.64
S6: L 3.03, K 3.93, A 3.64, R 3.39, G 4.26, V 3.1, W 2.62, C 3.52, D 4.03, I 2.64, E 3.53, T 4.18, N 4.23, Q 4.25, F 3.46, P 3.78, M 3.74, H 3.53, Y 3.39
L4: C 3.29, D 4.53, N 4.23, W 3.77, V 3.74, M 4.27, T 3.81, Y 3.53, A 4.69, P 4.61, E 4.34, F 3.5, I 3.18, K 4.49, S 4.06, Q 4.32, R 4.24, H 3.58
